According to patent US20210079083A1 (INSTITUTE FOR BASIC SCIENCE, published 2021):

Columns and labels:
[1] = biological target: T1, mouse Ang2 (mAng2) (mouse, UniProt O35608 19-496, limits assumed); assay: ELISA, mAng2 coated at 20 ng per well, detection with anti-human IgG (Fab)-HRP
T1 construct: Coated on the ELISA plate; also called recombinant mAng2
T1 sequence (looked up): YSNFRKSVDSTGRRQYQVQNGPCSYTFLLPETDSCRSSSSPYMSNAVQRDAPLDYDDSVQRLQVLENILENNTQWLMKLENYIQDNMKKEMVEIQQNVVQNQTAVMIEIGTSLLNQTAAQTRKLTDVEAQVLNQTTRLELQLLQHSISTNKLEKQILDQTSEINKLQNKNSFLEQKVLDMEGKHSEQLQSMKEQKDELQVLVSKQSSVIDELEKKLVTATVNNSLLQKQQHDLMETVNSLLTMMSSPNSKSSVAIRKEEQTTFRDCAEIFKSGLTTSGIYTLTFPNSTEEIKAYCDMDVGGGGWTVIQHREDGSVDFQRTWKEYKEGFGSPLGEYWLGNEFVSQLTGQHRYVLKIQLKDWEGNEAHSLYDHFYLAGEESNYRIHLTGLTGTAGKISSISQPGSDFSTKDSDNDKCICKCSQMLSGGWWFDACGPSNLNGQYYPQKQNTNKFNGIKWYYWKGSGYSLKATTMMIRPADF
Procedure: FIG. 8. EC₅₀ values of anti-Ang2 antibodies against mouse Ang2 by ELISA. The binding affinities of humanized anti-Ang2 antibodies for mouse Ang2 (mAng2) were measured by analyzing EC₅₀ with ELISA. The recombinant mAng2 was coated and incubated with serially diluted anti-Ang2 antibodies, 4B9H11 and 2C8H11. Next, the plate was reacted with anti-human IgG (Fab)-HRP secondary antibody. The plate was treated with TMB solution and absorbance was measured at 450 nm. EC₅₀ value was analyzed using PerkinElmer's WorkOut 2.5 program.
The affinity of humanized antibodies for mouse Ang2 (mAng2) was analyzed by ELISA. Specifically, mAng2 was diluted in 30 μl of a coating buffer (0.1 M sodium carbonate buffer) at 20 ng per well in a half 96-well plate (Corning 3690) and incubated overnight at 4° C. After washing with TBS-T solution for 3 times, the well plate was blocked with 3% skim milk at room temperature for 1 hr and then washed again. 2C8H11 and 4B9H11 were serially diluted from […] to 300 ng/ml. After loading 30 μl of the diluted ant-Ang2 antibodies into wells, the well plate was incubated at room temperature for 2 hrs. […] After developing for 5 min, the plate was treated with 1N sulfuric acid to stop the reaction, and absorbance was measured at 450 nm. Based on the measured OD value, the EC₅₀ value was analyzed using PerkinElmer's WorkOut 2.5 program.

[2] = biological target: T2, Human Angiopoietin-2 full-length (hAng2) (human, UniProt O15123 19-496); assay: BLI (Octet), antibody fixed on AR2G sensor, hAng2 3.125-50 nM in solution, 1:1 global fit
T2 construct: The cell assays used full-length hAng2 from R&D Systems; also called human Ang2; A2
T2 sequence: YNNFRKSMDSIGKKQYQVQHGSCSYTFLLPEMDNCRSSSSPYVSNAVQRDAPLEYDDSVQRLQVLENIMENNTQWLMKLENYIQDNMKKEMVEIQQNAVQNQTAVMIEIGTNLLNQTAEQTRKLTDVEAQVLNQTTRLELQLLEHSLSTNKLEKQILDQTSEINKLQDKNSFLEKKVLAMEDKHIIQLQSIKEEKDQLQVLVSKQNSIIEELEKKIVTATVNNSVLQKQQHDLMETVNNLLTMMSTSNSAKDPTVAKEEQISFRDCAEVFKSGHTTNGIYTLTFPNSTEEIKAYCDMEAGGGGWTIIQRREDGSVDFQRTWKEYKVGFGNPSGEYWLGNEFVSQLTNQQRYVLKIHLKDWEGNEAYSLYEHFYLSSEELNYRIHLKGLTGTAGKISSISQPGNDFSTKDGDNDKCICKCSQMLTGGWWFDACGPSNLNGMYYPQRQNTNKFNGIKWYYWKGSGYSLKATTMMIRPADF
Procedure: The affinity of humanized anti-Ang2 antibody against hAng2 was measured using Octet system (ForteBio). Specifically, buffer and samples were measured in total 200 μl/well using Black 96-well plates (96 well F-type black plates, Greiner). […] After the hydration, humanized anti-Ang2 antibody was diluted in 10 mM sodium acetate, pH 6.0 buffer at a concentration of 10 μg/ml, fixed on AR2G biosensor, and blocked with 1M ethanolamine. The recombinant hAng2 was diluted to 50, 25, 12.5, 6.25, 3.125, and 0 nM with 1× kinetic buffer, and subjected to association for 300 sec and dissociation for 900 sec.
The affinities of humanized 2C8 antibodies to hAng2 were in Table 15.

Row | Binder | EC50 [1] [µg/mL] | Kd [2] [nM] | koff [2] [s⁻¹] | kon [2] [M⁻¹ s⁻¹]
1 | humanized anti-Ang2 antibody 2C8H11 (antibody, V domains shown, Full-length human IgG1) VH: QVQLVQSGAEVKKPGASVKVSCKASGYTFTSYWMHWVRQAPGQGLEWMGMIDPSDSETRLNQKFKDRVTMTRDTSTSTVYMELSSLRSEDTAVYYCARRFYYGSDWYFDVWGQGTLVTVSS VL: DIQLTQSPSFLSASVGDRVTITCKASQDVGTAVAWYQQKPGKAPKLLIYWASTRHTGVPSRFSGSGSGTEFTLTISSLQPEDFATYYCQQYSSYPLTFGQGTKVEIK | 97 | 0.212 | 1.4e-05 | 66000
2 | humanized anti-Ang2 antibody 4B9H11 (antibody, V domains shown, Full-length human IgG1) VH: QVQLVESGGGLVKPGGSLRLSCAASGFTFSDYYMYWIRQAPGKGLEWVSTISVGGSFTYYPDSVKGRFTISRDNAKNSLYLQMNSLRAEDTAVYYCARDWGLRPWFVYWGQGTLVTVSS VL: DIQMTQSPSSLSASVGDRVTITCKASQDVSTAVAWYQQKPGKAPKLLIYWASTRHTGVPSRFSGSGSGTDFTLTISSLQPEDFATYYCQQHYSTPPTFGQGTKVEIK | 105 | 0.0171 | 1.58e-06 | 92900
